Reference: US10561706B2, “Isolated polypeptide and compositions comprising same” (B. G. NEGEV TECHNOLOGIES AND APPLICATIONS LTD., AT …, priority 2015, dated 2020)

Columns and labels:
[1] = target: T1, SOD1^G93A (Homo sapiens, UniProt P00441, G94A); test: Peptide binding to fluorescently labeled SOD1^G93A by microscale thermophoresis (MST); conditions: SOD1^G93A 300 nM, 1.5 h at r.t., peptide 0-100 μM
T1 construct: 6His (N); made in house; host or cells: E. coli BL21
From the text: (§1) Peptides were synthesized by GL Biochem Ltd. (Shanghai, China). Peptide identity and purity (>90%) was confirmed by MS and HPLC analyses. For microscale thermophoresis (MST) analysis, the proteins (SOD1^WT and SOD1^G93A) were labeled with BLUE fluorescent dye NT-495-NHS (lysine chemistry) using a Monolith NT protein labeling kit Blue-NETS (Nano Temper Technologies, Munchen, Germany) at a protein (monomer):dye ratio of 1:3 as recommended by the manufacturer.
(§2) The assessment of peptide binding to the proteins was carried out using Monolith NT.115 (NanoTemper Technologies, Munchen, Germany). […] The binding data were analyzed by a non-linear regression using a logistic (three parameter) function implemented in Prism6 (GraphPad) program.
(§3) The binding of synthetic peptides to fluorescently labeled SOD1^WT or SOD1^G93A was assessed using a microscale thermophoresis technique (MST). Two overlapping peptides, designated SE-11 (SEQ ID NO: 6) (SOD1 aa. 90-109, […]) and SE-12 (SEQ ID NO: 7) (SOD1 aa. 106-125, […]), inflicted a specific, dose-dependent increase in the fluorescence of the target proteins (FIGS. 3A-D).

[2] = target: T1, SOD1^G93A; test: TEM analysis of SOD1^G93A aggregate morphology; type: biochemical; conditions: for morphology of SOD1^G93A aggregates by TEM: 64 h at 37° C.; for morphology of SOD1^G93A aggregates by TEM versus SOD1^G93A alone: co-incubation with peptide, end of aggregation assay (FIG. 4B)
Experimental: Samples for TEM imaging were prepared as follows: at the end of the aggregation assay, 2.5 μl samples (diluted 5-fold) were deposited on a carbon-coated copper 300 mesh. After 1 min, the excess liquid was carefully blotted by a filter paper. Followed 1 min drying at the ambient temperature, 5 μl of 2% uranyl acetate was added. After 1 min, the excess of the salt solution was carefully removed with a filter paper. The imaging was performed using a Tecnai G2 12 BioTWIN (FEI) transmission electron microscope with an acceleration voltage of 120 kV. Depending on the aggregate size, different magnifications were used. The visible features were sensitive to the electron beam exposure, indicating their organic origin.
(§4) The effect of the binding of SOD1-derived peptides to misfolded SOD1 on kinetics of SOD1 aggregation was tested. The time course of SOD1^G93A aggregation was followed by monitoring the fluorescence of a thioflavin T (ThT) probe.

[3] = target: T2, SOD1^WT (Homo sapiens, UniProt P00441); test: Peptide binding to fluorescently labeled SOD1^WT by microscale thermophoresis (MST); conditions: SOD1^WT 200 nM, 1.5 h at r.t., peptide 0-100 μM
T2 construct: 6His (N); made in house; host or cells: E. coli BL21
T2 sequence (P00441 whole entry): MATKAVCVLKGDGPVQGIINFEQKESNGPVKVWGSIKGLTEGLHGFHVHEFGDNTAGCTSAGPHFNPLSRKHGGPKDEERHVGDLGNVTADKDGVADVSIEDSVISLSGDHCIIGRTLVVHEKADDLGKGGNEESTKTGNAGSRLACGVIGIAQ
From the text: as §1, §2, §3

[4] = target: T1, SOD1^G93A; test: ThT aggregation assay of SOD1^G93A with SOD1-derived peptides; type: biochemical; conditions: for ThT response / amyloid-like aggregation of SOD1^G93A on co-incubation with peptide: SOD1^G93A 50 μM, up to 64 h
Experimental: Prior to the aggregation assay, all mixtures containing protein and/or peptide were filtered through a 0.22 μm Millex-GV (PVDF) syringe filter, 4 mm (Millipore, USA). SOD1^G93A (50 μM) or peptide (600 μM) were incubated in 200 μl of 20 mM […] buffer, pH 7.0, 0.1 M NaCl, 5 mM EDTA, 1 mM TCEP, and 1% DMF in the presence of 50 μM Thioflavin T (Sigma Aldrich, Israel) in a black 96-well plate at 37° C. with continuous shaking (set to fast) using a SpectraMax Paradigm (Molecular Devices) ELISA reader. The fluorescence (Exc. 440 nm; Em. 485 nm) was measured at 5 min intervals.
as §4

[5] = target: T2, SOD1^WT; test: Immunoprecipitation (B8H10 mAb) analysis of SOD1^WT misfolding; type: biochemical; conditions: peptide 600 μM, 4 or 37° C.; effect more prominent at 4° C.
Experimental: Purified recombinant SOD1^G93A or SOD1^WT proteins […] were incubated for 4 h in 50 mM Tris-HCl buffer, pH 7.4, 150 mM NaCl, 1 mM EDTA, in the presence or absence of peptide SE-12 (SEQ ID NO: 7) (600 μM) at 4 or 37° C. After incubation, 10 μg of SOD1 proteins were transferred into immunoprecipitation (IP) buffer (50 mM Tris-HCl, pH 7.4, 150 mM NaCl, 1 mM EDTA, and 0.5% Nonidet P-40 plus protease inhibitors) and incubated at 4° C. overnight with B8H10 monoclonal antibody (MediMabs) crosslinked to protein G beads (Dynabeads, Invitogen) using dimethyl pimelimidate (Pierce) according to the manufacturer's instructions. The beads were magnetically isolated and washed three times with IP buffer. Samples were eluted by boiling in 2× sample buffer. Both bound and unbound IP fractions were then separated by SDS-PAGE, transferred to a nitrocellulose membrane and probed with goat anti-SOD1 antibody (C-17; Santa Cruz Biotechnology).
To test the function of the exposed ^106LSGDHC^111 epitope on misfolding of other SOD1 molecules, the effect of the SE-12 (SEQ ID NO: 7) peptide on SOD1 misfolding was tested using immunoprecipitation with a mAb (B8H10) that specifically recognizes misfolded SOD1. […] The effect of the peptide was more prominent at 4° C., when the intrinsic rate of SOD1^WT misfolding is low, than at 37° C. […]

[6] = 1:12 SOD1^G93A:peptide molar ratio

T1 sequence (P00441 2-154 G94A): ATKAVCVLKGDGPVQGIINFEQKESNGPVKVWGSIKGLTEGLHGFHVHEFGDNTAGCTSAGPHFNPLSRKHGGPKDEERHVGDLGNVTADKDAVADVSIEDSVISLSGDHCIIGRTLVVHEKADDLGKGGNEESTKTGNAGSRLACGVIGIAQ

Sequence | change in fluorescence of labeled SOD1^G93A (peptide binding) [1] | morphology of SOD1^G93A aggregates by TEM [2, 6] | morphology of SOD1^G93A aggregates by TEM ([2]; low peptide:SOD1 molar ratio (1:0.2 SOD1^G93A:peptide)) | change in fluorescence of labeled SOD1^WT (peptide binding) [3] | ThT response of SOD1^G93A ([4]; low peptide:SOD1 molar ratios, 37° C., continuous shaking) | ThT response of SOD1^G93A ([4]; peptide:SOD1 molar ratios higher than 3, compared to SOD1^G93A alone) | morphology of SOD1^G93A aggregates by TEM versus SOD1^G93A alone [2] | ThT response / amyloid-like aggregation of SOD1^G93A on co-incubation with peptide ([4]; 37° C., continuous shaking) | amount of misfolded SOD1^WT immunoprecipitated by B8H10 [5]
DKDGVADVSIEDSVISLSGD (listed as Homo sapiens) [SE-11, 20-mer peptide, SOD1 aa; 90-109] | effect was obtained | large spherulites (0.5-1.0 μm diameter) | suppressed the formation of characteristic fibril-like aggregates | only with SOD1^G93A | inhibited the ThT response of SOD1^G93A | significantly enhanced ThT response |  |  | 
EDSVISLSGDHCIIGRT (listed as Homo sapiens) [SE-21, SOD1-derived peptide] |  |  |  |  |  |  | different morphology (size) | did not prevent aggregation | 
LSGDHCIIGRTLVVHEKADD (listed as Homo sapiens) [SE-12, 20-mer peptide, SOD1 aa; 106-125] | increase in fluorescence was observed | amorphous aggregates were detected by TEM |  | increase in fluorescence was observed |  |  |  | inhibited the SOD1^G93A-triggered ThT response and fibril formation in a dose-dependent manner | significantly increased the amount of accumulated misfolded species
DKDGVADVSIEDSV (listed as Homo sapiens) [SE-20, SOD1-derived peptide] |  |  |  |  |  |  | morphology was different | formation of amyloid-like (ThT-responsive) aggregates | 
IIGRTLVVHEKADD (listed as Homo sapiens) [SE-19, SOD1-derived peptide] |  |  |  |  |  |  | morphology was different | formation of amyloid-like (ThT-responsive) aggregates | 
